Experimental data reported in doi:10.1101/2022.02.05.479199.

Columns and labels:
[1] = biological target: RPA-DBD-D^MB543 (S. cerevisiae) (UniProt P22336); assay: C-trap optical tweezers with confocal fluorescence
[2] = biological target: RPA-DBD-D^Cy3 (S. cerevisiae) (UniProt P22336); assay: FRET or BRET
[3] = biological target: RPA-DBD-A^Cy3 (S. cerevisiae) (UniProt P22336); assay: FRET or BRET
[4] = biological target: F-A-B-DBD-A^MB543 (S. cerevisiae); assay: other fluorescence titration
[5] = biological target: RPA-DBD-A^MB543 (S. cerevisiae) (UniProt P22336); assay: other fluorescence titration

| t1/2 of dissociation [1] [s] | kobs,1 (two-step model) [2] [s⁻¹] | kobs,2 (two-step model) [2] [s⁻¹] | kobs (single exponential model) [3] [s⁻¹] | kobs (single-step model) [3] [s⁻¹] | Kd [4] [nM] | Kd [5] [nM] | Binder |
| --- | --- | --- | --- | --- | --- | --- | --- |
| 5 | 3.5 | 0.2 | 0.62 | 0.2 |  |  | Rtt105^Cy5 (natural protein, Cy5 (maleimide) on Cys-12) MYSNHNLNSDDCSFDWNEEKAAELQRTGVSFDRSLTPQSLRTSTRRLSEENKQQSGTMHIDTSPSVVSDIISSRRDRSQDFFGPHSSSPIAPSERQRADQRSRLESMRLTRRRDKMTKVRGGLEKMEEMIMQGEHLREMQRLKQEAQKNALPSDMAEYMEWQNNEDLEDDELLAFIEKQETYKNELEHFLNNANKNVYENNSYPNSHT |
|  |  |  |  |  | 33.9 | 61.1 | Regulator of Ty1 Transposition 105 (Rtt105) (natural protein) MYSNHNLNSDDCCFDWNEEKAAELQRTGVSFDRSLTPQSLRTSTRRLSEENKQQSGTMHIDTSPSVVSDIISSRRDRSQDFFGPHSSSPIAPSERQRADQRSRLESMRLTRRRDKMTKVRGGLEKMEEMIMQGEHLREMQRLKQEAQKNALPSDMAEYMEWQNNEDLEDDELLAFIEKQETYKNELEHFLNNANKNVYENNSYPNSHT |
